Blank lines part the entries; values can stand above or below the molecule they belong to.
Legend:
DPPI transferase assay = type: biochemical, rat; conditions: FIG. 8
Description: The rate of transfer of dipeptides from a donor peptide to the nucleophilic amino terminus of an acceptor peptide, the ratio of dipeptide transfer to hydrolysis and the stability of elongated peptide product to hydrolytic turnover are estimated in a transferase assay.
In these reactions, X and Y are any amino acid residue with the exception of prolyl. X is preferably Phe and Y is preferably Arg or Lys and pNA is a para-nitroanilide group. H and COOH indicate unblocked peptide amino and carboxy termini, respectively. In the transferase reaction, DPPI catalyses the transpeptidation of dipeptide H-Pro-X from the peptide amide to the free amino group of residue Y. The dipeptide can not be transferred to a second H-Pro-X-NH2 molecule because of the N-terminal Pro residue. The progress of the transpeptidation reaction is monitored in the trypsin cleavage reaction, in which produced H-Pro-X-Y-pNA tripeptide is hydrolysed following the addition of trypsin endoprotease to an aliquot of reaction mixture. Trypsin hydrolyses H-Pro-X-Arg/Lys-pNA much more rapidly than H-Arg/Lys-pNA (low aminopeptidase activity) making it possible to determine the amount of tripeptide formed. The transferase reaction is essentially stopped upon addition of trypsin because the reactants are diluted 10-fold (resulting in an approximately 100-fold lower rate) and because DPPI is unstable at pH 8.3.
The concentration of tripeptide obtained also depends on the rates of hydrolysis of the initial substrate (Hydrolysis reaction 1) and of the tripeptide (Hydrolysis reaction 2):
The hydrolysed peptides […] and […] are not DPPI substrates and can no longer be used in peptide synthesis. Accordingly, the peptidase activity of DPPI degrades both the trypsin substrate (before trypsin is added to the reaction mixture) and one of its precursors.
20 μl of DPPI (1-50 U/ml) in 20 mM Tris-HCl or sodium phosphate-NaOH buffer pH 7.5 is mixed with 20 μl 20 mM dithiothreitol (DTT) and allowed to incubate for 30 min at 5-37° C., preferably 12° C. Meanwhile, 10 μl 400 mM H-Pro-X-NH2 and 10 μl 500 mM H-Y-pNA (both in 100% dimethyl formamide) and 140 μl […] Tris-HCl or sodium phosphate-NaOH buffer, pH 7.5 are mixed and incubated at the same temperature. The transferase and hydrolysis reactions are initiated by the addition of reduced and activated DPPI to the peptide mixture (same temperature). All reaction mixtures should include a minimum of 10 mM chloride.
The progress of the reaction is followed by mixing 10 μl aliquots with 1 μM trypsin in 0.1 M Tris-HCl buffer pH 8.3 and at 5-37° C., preferably 20-37° C. A yellow colour quickly appears. After 10 min, 1000 μl of water are added and the absorbance at 405 nm is measured against an appropriate blank.

[1] = system: one or more cysteine peptidases present in the eluates of the Butyl SEPHAROSE FF column; assay: Proteolytic processing of immature DPPI peptides in Butyl Sepharose FF eluate (SDS-PAGE); type: biochemical; conditions: eluate incubated at pH 4.5, 4° C.
Method: DPPI eluted from the hydrofobic interaction column was in general only partially processed to the mature, active form. To complete the processing, the eluate was incubated at pH 4.5 and 4° C. for 18-40 hours to convert the immature peptides to the peptides of mature rrDPPI or rhDPPI. […] Furthermore, the rate of processing was dependent on the pH of the buffer during incubation. No conversion of the immature peptides could be observed at pH 7.0 as determined by SDS-PAGE analysis but processing was observed when incubation was performed at pH 6.5 or below. The processing proceeded at highest rate at about pH 4.5. The fully processed rhDPPI and rrDPPI were finally purified and concentrated on Q-SEPHAROSE™ FF as described above. Recombinant hDPPI was quantified using an extinction coefficient at 280 nm of 2.0.

- rate of generation of the tripeptide substrate (DPPI transferase assay; compared with wild type and D274Q): nearly as fast as the other two variants
Molecule: N226S229:Q226N229: rat DPPI active site double mutant Asn226:Ser229 to Gln226:Asn229
- stability of the produced tripeptide product in presence of the variant (DPPI transferase assay): much more stable
- transferase activity versus hydrolytic activity (maximum level of tripeptide) (DPPI transferase assay): favoured over the hydrolytic activity

Molecule: D274Q: rat DPPI active site mutant Asp274 to Gln274
- influence of mutation on rat DPPI transferase activity (DPPI transferase assay; versus wild type rat DPPI): no favourable influence

Molecule: CC(C)C[C@H](NC(=O)[C@H]1O[C@@H]1C(=O)O)C(=O)NCCCCN=C(N)N [E-64, reference compound]
- proteolytic processing of the immature peptides to mature rrDPPI or rhDPPI ([1]; addition of 1 μM E-64): completely blocked

B1: chicken cystatin: non-covalent protein inhibitor of cysteine peptidases of the cystatin family (protein, UniProt P01038 24-139, looked up)
Cystatin: SEDRSRLLGAPVPVDENDEGLQRALQFAMAEYNRASNDKYSSRVVRVISAKRQLVSGIKYILQVEIGRTTCPKSSGDLQSCEFHDEPEMAKYTTCTFVVYSIPWLNQIKLLESKCQ
- proteolytic processing of the immature peptides to mature rrDPPI or rhDPPI ([1]; addition of 0.1 μM chicken cystatin): completely blocked
